Consider 1 protein from paper PMC4222275, “Biochemical and functional characterization of SpdA, a 2′, 3′cyclic nucleotide phosphodiesterase from Sinorhizobium meliloti” (BMC Microbiology, 2013).

Substrate in the series: Nc1ncnc2c1ncn2[C@@H]1O[C@H](CO)[C@H]2OP(=O)(O)O[C@H]21
In words: phosphate release with calf intestine phosphatase, Biomol Green. Type of series: biochemical, Sinorhizobium meliloti. The settings on record: 50 mM Tris-HCl pH 8, 5 mM beta-mercaptoethanol, 10 mM NaCl, 25 °C, 1 μM SpdA.

B1: SpdA (Sinorhizobium meliloti 1021) (protein)
chain: MTKLIIFSDLHMVPEGETIIGLDPYRRLANGIAHVNRYHADADRVIFAGDLTHRADRASYERLKALLGELTPPAALMIGNHDRRDVFLDVFAEATTDANGFVQQVLDFADCRAILLDTLFAPPYDYPVSHAGHLCDRRLAWLDRQLEEAGGRPALIFMHHPPHISGFAGIDMIRLVNEDDFYALVKRHGNVRHIFAGHVHRTISGSSRGIPFSIFKSPVHQQPMPFDTADASLSVDEPAAYGIALVTGDGVLVHTEDYEIARRDAVGA
notes: C-terminal His6 tag (pET-22b, NdeI-HindIII), tag kept, E. coli BL21(DE3), monomer, metal-free
A word on the Km: it is the concentration of substrate that gives half-maximal velocity. Broadly, the kcat is the maximal rate divided by the concentration of active sites. Consider B1, for which the Km is on record as 3.7 mM and the catalytic constant (kcat) was found to be 2 s⁻¹.
